Consider 17 molecules from article PMC2430598, “Structural Analysis Reveals Conformational Plasticity in the Recognition of RNA 3′ Ends by the Human La Protein”.

In general, Kd refers to the free concentration of one partner at which half of the binding sites on the other are occupied at equilibrium, for simple one-to-one binding.

Series [1] concerns the target T1, LaNTD (La 4-194) (Homo sapiens, UniProt P05455 4-194).
T1 sequence: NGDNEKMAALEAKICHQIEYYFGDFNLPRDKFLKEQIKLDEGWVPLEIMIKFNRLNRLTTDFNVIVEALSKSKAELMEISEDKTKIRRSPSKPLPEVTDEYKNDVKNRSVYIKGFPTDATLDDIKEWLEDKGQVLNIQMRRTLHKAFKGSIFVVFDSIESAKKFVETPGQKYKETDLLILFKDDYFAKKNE
The series is described as follows: X-ray crystallography; 1.8 A, P21212; only last two U modelled; EMSA: ~1 nM radiolabeled RNA, protocol of Jacks et al. 2003 (buffer, salt, pH, temperature not given); NMR: 15N-LaNTD, RNA:protein 0.2-1.5:1, NMR buffer not given. The conditions noted are these: protein: recombinant; tags: N-terminal 6xHis removed by thrombin; leaves Gly-Ser; single strand. (In general: Mobility shift assays separate free from complexed probe on a gel.)

In series [2] the target is T2, LaNTD (La 1-194) (Homo sapiens, UniProt P05455 1-194).
T2 sequence: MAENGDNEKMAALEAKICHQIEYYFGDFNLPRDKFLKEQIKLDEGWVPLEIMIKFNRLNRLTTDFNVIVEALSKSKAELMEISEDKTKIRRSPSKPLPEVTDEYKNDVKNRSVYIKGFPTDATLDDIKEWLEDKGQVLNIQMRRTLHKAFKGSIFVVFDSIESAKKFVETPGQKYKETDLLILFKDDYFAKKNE
Briefly: EMSA; EMSA: ~1 nM radiolabeled RNA, protocol of Jacks et al. 2003 (buffer, salt, pH, temperature not given); NMR: 15N-LaNTD, RNA:protein 0.2-1.5:1, NMR buffer not given. To be noted: protein: recombinant, single strand.

The target of series [3] is T1, LaNTD (La 4-194). The series is described as follows: X-ray crystallography; 2.1 A, C2; EMSA: ~1 nM radiolabeled RNA, protocol of Jacks et al. 2003 (buffer, salt, pH, temperature not given); NMR: 15N-LaNTD, RNA:protein 0.2-1.5:1, NMR buffer not given. To be noted: protein: recombinant; tags: N-terminal 6xHis removed by thrombin; leaves Gly-Ser; single strand.
In series [4] the target is T2, LaNTD (La 1-194). The series is described as follows: NMR HSQC titration and relaxation; EMSA: ~1 nM radiolabeled RNA, protocol of Jacks et al. 2003 (buffer, salt, pH, temperature not given); NMR: 15N-LaNTD, RNA:protein 0.2-1.5:1, NMR buffer not given. The conditions noted are these: protein: recombinant; single strand.
In series [5] the target is T2, LaNTD (La 1-194). Briefly: NMR HSQC titration; EMSA: ~1 nM radiolabeled RNA, protocol of Jacks et al. 2003 (buffer, salt, pH, temperature not given); NMR: 15N-LaNTD, RNA:protein 0.2-1.5:1, NMR buffer not given. The conditions noted are these: protein: recombinant; single strand.
In series [6] the target is T2, LaNTD (La 1-194). The series is described as follows: EMSA; reference oligomer for relative Kd; EMSA: ~1 nM radiolabeled RNA, protocol of Jacks et al. 2003 (buffer, salt, pH, temperature not given); NMR: 15N-LaNTD, RNA:protein 0.2-1.5:1, NMR buffer not given. The conditions noted are these: protein: recombinant; label: radiolabeled; single strand.
The target in series [7] is T1, LaNTD (La 4-194). Briefly: X-ray crystallography; 2.8 A, C222; EMSA: ~1 nM radiolabeled RNA, protocol of Jacks et al. 2003 (buffer, salt, pH, temperature not given); NMR: 15N-LaNTD, RNA:protein 0.2-1.5:1, NMR buffer not given. The conditions noted are these: protein: recombinant; tags: N-terminal 6xHis removed by thrombin; leaves Gly-Ser; single strand.
Series [8] concerns the target T2, LaNTD (La 1-194). The series is described as follows: NMR HSQC titration; split resonances, two states; EMSA: ~1 nM radiolabeled RNA, protocol of Jacks et al. 2003 (buffer, salt, pH, temperature not given); NMR: 15N-LaNTD, RNA:protein 0.2-1.5:1, NMR buffer not given. The conditions noted are these: protein: recombinant; single strand.

As to UUUUUUUU (ssRNA) [UUUUUUUU (U8)], the binding result in the series with LaNTD (La 4-194) [1] is recorded as “binds”.

For the molecule CACACACCUU (ssRNA), in the series with LaNTD (La 1-194) [2] (label: radiolabeled), the binding signal is 2.4 ± 0.5 Kd relative to CACACAAUUU (30 nM).

Consider AUAUUUU (ssRNA), for which the binding result with LaNTD (La 4-194) [3] was “binds”.

On to UUUU (ssRNA), for which the binding result with LaNTD (La 1-194) [4] is on record as “binds”.

CACACAACUU (ssRNA): in the series with LaNTD (La 1-194) [2] (label: radiolabeled), the binding signal was 2 ± 0.8 Kd relative to CACACAAUUU (30 nM).

For CACACAAAUU (ssRNA), the binding signal in the series with LaNTD (La 1-194) [2] (label: radiolabeled) was 2.8 ± 1.1 Kd relative to CACACAAUUU (30 nM).

CACACAUCUU (ssRNA): the binding signal with LaNTD (La 1-194) [2] (label: radiolabeled) is 1.4 ± 0.5 Kd relative to CACACAAUUU (30 nM).

Turning to CACACACUUU (ssRNA), in the series with LaNTD (La 1-194) [2] (label: radiolabeled), the binding signal was 1.2 ± 0.4 Kd relative to CACACAAUUU (30 nM).

For UCUU (ssRNA), the binding result with LaNTD (La 1-194) [5] was “binds”.

In the case of CACACAUAUU (ssRNA), the binding signal with LaNTD (La 1-194) [2] (label: radiolabeled) was 1 ± 0.2 Kd relative to CACACAAUUU (30 nM).

Regarding CACACAAUUU (ssRNA), in the series with LaNTD (La 1-194) [6], the Kd came out at 30 nM.

Turning to CACACAUUUU (ssRNA), the binding signal with LaNTD (La 1-194) [2] (label: radiolabeled) is 0.8 ± 0.3 Kd relative to CACACAAUUU (30 nM).

Turning to AUUUU (ssRNA), the binding result with LaNTD (La 4-194) [7] and in the series with LaNTD (La 1-194) [8] was “binds” each time.

Turning to ACACACUUUU (ssRNA), the binding signal with LaNTD (La 1-194) [2] (label: radiolabeled) is 0.7 ± 0.2 Kd relative to CACACAAUUU (30 nM).

For the molecule UUU (ssRNA), the binding result with LaNTD (La 1-194) [4] is given as “binds”.

For UUUUUUUUUU (ssRNA) [UUUUUUUUUU (U10)], in the series with LaNTD (La 1-194) [2] ((radiolabeled) in gel shift, unlabeled in NMR), the binding signal is 1 ± 0.4 Kd relative to CACACAAUUU (30 nM).

Consider AUAAUUU (ssRNA), for which the binding result with LaNTD (La 4-194) [3] is “binds”.
